Assay results taken from publication PMC8825603 (Theranostics, 2022).

B1: αCD40-Fab2-GpL (Fab, V domains shown)
VH: QVQLVQSGAEVKKPGASVKVSCTASGFNIKDYYVHWVKQAPGQGLEWMGRIDPEDGDSKYAPKFQGKATMTADTSTSTVYMELSSLRSEDTAVYYCTTSYYVGTYGYWGQGTLVTVSS
VL: DIQMTQSPSSLSASVGDRVTITCSASSSVSYMLWFQQKPGKAPKLLIYSTSNLASGVPSRFSGSGSGTDFTLTISSLQPEDFATYYCQQRTFYPYTFGGGTKVEIK
notes: VH of the anti-CD40 antibody C; linker L6; CH1: constant heavy chain of human IgG1, aa 145-260 of GenBank AAA02914.1; numbers count on: GenBank AAA02914.1; VL of the anti-CD40 antibody C; linker L4; constant light chain, aa 105-214 of GenBank BAA97671.1; numbers count on: GenBank BAA97671.1; Bivalent Fab2 format; source: HEK293, transiently transfected (PEI), cell culture supernatant; copies: 2 + …
B2: αCD40-N297A-GpL (antibody, V domains shown)
VH: B1 VH
VL: B1 VL
notes: VH of the anti-CD40 antibody C; linker L6; constant heavy chain of human IgG1, aa 145-476 of GenBank AAA02914.1, with N297A (the footnote prints 'A to N mutation at position 327'); VL of the anti-CD40 antibody C; linker L4; constant light chain, aa 105-214 of GenBank BAA97671.1; numbers count on: GenBank BAA97671.1; IgG1(N297A); also called αCD40-IgG1(N297A); source: HEK293, transiently …
B3: αPDL1-N297A-GpL (antibody, V domains shown)
VH: EVQLLESGGGLVQPGGSLRLSCAASGFTFSSYIMMWVRQAPGKGLEWVSSIYPSGGITFYADTVKGRFTISRDNSKNTLYLQMNSLRAEDTAVYYCARIKLGTVTTVDYWGQGTLVTVSS
VL: QSALTQPASVSGSPGQSITISCTGTSSDVGGYNYVSWYQQHPGKAPKLMIYDVSNRPSGVSNRFSGSKSGNTASLTISGLQAEDEADYYCSSYTSSSTRVFGTGTKVTVL
notes: VH of the anti-PDL1 antibody Avelumab; linker L6; constant heavy chain of human IgG1, aa 145-476 of GenBank AAA02914.1, with N297A (the footnote prints 'A to N mutation at position 327'); VL of the anti-PDL1 antibody Avelumab; linker L4; constant light chain, aa 105-214 of GenBank BAA97671.1; numbers count on: GenBank BAA97671.1; IgG1(N297A); also called αPDL1-IgG1(N297A); parental anti-PDL1 …
B4: α41BB-Fab2-GpL (Fab, V domains shown)
VH: QVQLQQSGAEVIKPGASVKLSCKASGYTFSSYWMHWVRQAPGQGLEWIGEINPGNGHTNYNEKFKSRATLTGDTSTSTVYMELSSLRSEDTAVYYCARSFTTARAFAYWGQGTLVTVSS
VL: DIVMTQSPAFLSVTPGEKVTITCRASQTISDYLHWYQQKPDQAPKLLIKYASQSISGIPSRFSGSGSGTDFTFTISSLEAEDAATYYCQDGHSFPPTFGQGTKLEIK
notes: VH of the anti-41BB antibody HBBK4; linker L6; CH1: constant heavy chain of human IgG1, aa 145-260 of GenBank AAA02914.1; numbers count on: GenBank AAA02914.1; VL of the anti-41BB antibody HBBK4; linker L4; constant light chain, aa 105-214 of GenBank BAA97671.1; numbers count on: GenBank BAA97671.1; Bivalent Fab2 format; source: HEK293, transiently transfected (PEI), cell culture supernatant; …
B5: α41BB-N297A-GpL (antibody, V domains shown)
VH: B4 VH
VL: B4 VL
notes: VH of the anti-41BB antibody HBBK4; linker L6; constant heavy chain of human IgG1, aa 145-476 of GenBank AAA02914.1, with N297A (the footnote prints 'A to N mutation at position 327'); VL of the anti-41BB antibody HBBK4; linker L4; constant light chain, aa 105-214 of GenBank BAA97671.1; numbers count on: GenBank BAA97671.1; IgG1(N297A); also called α41BB-IgG1(N297A); source: HEK293, transiently …

Experiments:
Test in all cases: cellular equilibrium binding of GpL (luciferase)-tagged antibody variants; HEK293 cells transiently transfected with a CD40, 41BB or PD-L1 expression plasmid; increasing concentrations of GpL-tagged antibody variants (cell culture supernatants); 37 °C, 1.5 h; washed three times with ice cold PBS; binding to empty vector cells subtracted; one site specific binding fit
Conditions in all cases: partners not purified
[1] = molecular target: T1, PDL1 (UniProt Q9NZQ7)
T1 construct: PDL1, expressed on HEK293 cells from the expression plasmid pCMV6-XL4 (Origene Technologies); also called PD1 Ligand 1; PD1L; source: HEK293, transiently transfected with a PDL1 expression plasmid (pCMV6-XL4, Origene), on cells
T1 sequence (Q9NZQ7 19-290): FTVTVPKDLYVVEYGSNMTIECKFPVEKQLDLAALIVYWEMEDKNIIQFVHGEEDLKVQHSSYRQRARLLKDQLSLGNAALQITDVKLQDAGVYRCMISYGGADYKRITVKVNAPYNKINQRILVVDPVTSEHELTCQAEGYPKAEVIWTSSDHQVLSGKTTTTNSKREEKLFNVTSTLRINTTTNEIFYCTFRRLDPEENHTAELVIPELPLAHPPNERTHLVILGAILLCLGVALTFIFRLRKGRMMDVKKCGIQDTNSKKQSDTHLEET

[2] = molecular target: T2, CD40 (Homo sapiens (species ), UniProt P25942)
T2 construct: CD40, expressed on HEK293 cells from an expression plasmid (gift of Pascal Schneider); also called cluster of differentiation 40; source: HEK293, transiently transfected with a CD40 expression plasmid, on cells
T2 sequence (P25942 21-277): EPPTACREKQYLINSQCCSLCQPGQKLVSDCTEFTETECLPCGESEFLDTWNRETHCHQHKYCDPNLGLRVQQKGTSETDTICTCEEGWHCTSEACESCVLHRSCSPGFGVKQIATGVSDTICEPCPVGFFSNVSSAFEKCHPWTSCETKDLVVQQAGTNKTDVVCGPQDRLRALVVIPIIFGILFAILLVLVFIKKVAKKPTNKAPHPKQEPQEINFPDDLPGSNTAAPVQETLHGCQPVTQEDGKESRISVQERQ

[3] = molecular target: T3, 41BB (Homo sapiens (species ), UniProt Q07011)
T3 construct: 41BB, expressed on HEK293 cells from an expression plasmid (gift of Pascal Schneider); source: HEK293, transiently transfected with a 41BB expression plasmid, on cells
T3 sequence (Q07011 24-255): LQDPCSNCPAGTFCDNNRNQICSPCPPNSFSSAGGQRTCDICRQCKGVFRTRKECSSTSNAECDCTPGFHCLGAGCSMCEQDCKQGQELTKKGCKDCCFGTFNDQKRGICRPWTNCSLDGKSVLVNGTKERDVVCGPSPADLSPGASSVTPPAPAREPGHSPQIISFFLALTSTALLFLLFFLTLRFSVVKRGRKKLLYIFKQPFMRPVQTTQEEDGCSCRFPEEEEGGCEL

[4] = molecular target: T1, PDL1; remark: listed apart in the source

| binding result [1] | binding result [4] | further results | Binder |
| --- | --- | --- | --- |
| no binding |  |  | B1 |
| no binding |  |  | B2 |
|  |  | binding result [2]: no binding; binding result [3]: no binding | B3 |
|  | no binding |  | B4 |
|  | no binding |  | B5 |
